Measured values taken from the supplement of paper PMC10567573.
± gives the standard deviation.

Experiment: protein stability index of a GFP-peptide fusion (GPS, HEK-293T) (PSI 1-6); higher = more stable
[1] = treatment: DMSO, c terminus: a fixed tail appended
[2] = treatment: MLN4924 1 uM, 8 h, c terminus: a fixed tail appended
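Also: 24-mer peptide tiles fused after GFP, lentivirally expressed, FACS-sorted into six equal bins by GFP/DsRed ratio, decoded by Illumina sequencing, PSI is the read-weighted mean bin number.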

HGVLSAEGFLFVFGGQDENKQTLS [GAN]
protein stability index [1]: 2.43 ± 0.27
protein stability index [2]: 2.65 ± 0.073

DERTHRSDRPFKCNQCGKCFIQSS [ZNF8]
protein stability index [1]: 2.98 ± 0.42
protein stability index [2]: 3.25 ± 0.47

KEDQFGRTPLMYCVLADRLDCADA [INVS]
protein stability index [1]: 3.12 ± 0.41
protein stability index [2]: 3.26 ± 0.3

VISLLNEPNTFSPANVDASVMFRK [UBE2R2]
protein stability index [1]: 2.79 ± 0.31
protein stability index [2]: 3.04 ± 0.2

ASTSTPSSTLVRPIRSRRALPPLR [FAM189A2]
protein stability index [1]: 4.16 ± 0.17
protein stability index [2]: 4.21 ± 0.21

LGLYINFRHLYKQRRRRYGQKKKK [HACD3]
protein stability index [1]: 2.37 ± 0.22
protein stability index [2]: 2.61 ± 0.34

MRHIRFLKNEVERLKKQLRAAQLQ [CCDC6]
protein stability index [1]: 2.31 ± 0.25
protein stability index [2]: 2.23 ± 0.25

APATGSGTPGPFTKEGGMLAYYEV [CHIT1]
protein stability index [1]: 2.55 ± 0.25
protein stability index [2]: 2.63 ± 0.16

ARGPGPEGGGGGSYFSGQGSDTGA [JUNB]
protein stability index [1]: 5.11 ± 0.27
protein stability index [2]: 4.91 ± 0.18

IFYDLVRQINRKTPVPGKARKKSS [RAP1B]
protein stability index [1]: 2.47 ± 0.47
protein stability index [2]: 2.37 ± 0.4

LPHLVALTEQYTVTGLMEATQMMV [RHOBTB2]
protein stability index [1]: 2.89 ± 0.67
protein stability index [2]: 2.86 ± 0.52

APLTISRVHAGSKAALAALCPGDL [PDLIM4]
protein stability index [1]: 3.62 ± 0.37
protein stability index [2]: 3.65 ± 0.28

TEDVGVVCSDKRIPGFKFDNSLIN [LOXL2]
protein stability index [1]: 3.76 ± 0.28
protein stability index [2]: 3.75 ± 0.3

LTRKGLVRVVFFPLFSNWWIQVTS [PHTF1]
protein stability index [1]: 3.06 ± 0.039
protein stability index [2]: 2.81 ± 0.71

VYHSYDLPWFRTLSWYFLLCVNYF [CDS1]
protein stability index [1]: 2.85 ± 0.42
protein stability index [2]: 2.63 ± 0.51

ILREIRHPNIITLHDIFENKTDVV [DAPK3]
protein stability index [1]: 2.47 ± 0.21
protein stability index [2]: 2.54 ± 0.2

PKDIAKLVPKTHLMSESEWRNLGV [CKS1B]
protein stability index [1]: 2.8 ± 0.32
protein stability index [2]: 2.85 ± 0.34

PSSNEEIRLVDDAFGKICHMVSDG [INTS4]
protein stability index [1]: 4.18 ± 0.23
protein stability index [2]: 4.5 ± 0.2

RDIRCSEDEKLCDPNTRPVGEKNC [ADAMTSL2]
protein stability index [1]: 5.18 ± 0.28
protein stability index [2]: 5.35 ± 0.22

DLPPPPADPVLDLPLPPPPPEPLS [APBB1IP]
protein stability index [1]: 5.39 ± 0.3
protein stability index [2]: 5.33 ± 0.18

VSGDLTKEDIDLIDILWRQDIDLG [NFE2L1]
protein stability index [1]: 3.02 ± 0.78
protein stability index [2]: 3.58 ± 0.61

EEARRNRLMRDMAQLRLQLEVSQL [SMG5]
protein stability index [1]: 2.25 ± 0.27
protein stability index [2]: 2.41 ± 0.29

DSDVPEQRDSKCKVKWTHEEDEQL [MYBL2]
protein stability index [1]: 5.44 ± 0.32
protein stability index [2]: 4.94 ± 0.76

SVWQHIDCMGIDRQHIPDTYLCER [KMT2E]
protein stability index [1]: 2.83 ± 0.2
protein stability index [2]: 2.81 ± 0.4

VLDELTLARADLEMQIENLKEELA [KRT17]
protein stability index [1]: 3.04 ± 0.29
protein stability index [2]: 3.1 ± 0.37

SASSPASVGDPCGGAICGGPDHRL [SLC25A25]
protein stability index [1]: 4.43 ± 0.23
protein stability index [2]: 4.58 ± 0.22

CGTKYPVEWAKFCCECGIRRMIL [ZC2HC1A]
protein stability index (treatment: DMSO, c terminus: native): 3.11 ± 0.39
protein stability index (treatment: MLN4924 1 uM, 8 h, c terminus: native): 3.53 ± 0.055

HNCQLHRISFCADDKTDKRIFTFI [GULP1]
protein stability index [1]: 2.61 ± 0.36
protein stability index [2]: 2.4 ± 0.52

FYQAVRDLLPVWLLEDMRASEAFH [ANKRD9]
protein stability index [1]: 2.85 ± 0.47
protein stability index [2]: 2.59 ± 0.57

NYGKILVEKNEHCIENNIDLQVNR [R3HDM1]
protein stability index [1]: 3.56 ± 0.33
protein stability index [2]: 3.75 ± 0.19

HLEYRFYKQLGSAGEGLPQVYYFG [CSNK1G1]
protein stability index [1]: 2.2 ± 0.47
protein stability index [2]: 2.15 ± 0.68

EGCKSFFKRSVRRNLSYTCRANRN [NR2F2]
protein stability index [1]: 3.34 ± 0.36
protein stability index [2]: 3.52 ± 0.31

PAPAPLVPQDPDLEEEEEEEDLVL [ZBTB22]
protein stability index [1]: 5.59 ± 0.33
protein stability index [2]: 5.69 ± 0.2

NITVVKGIRLSENVIDRMKESSPS [CHCHD3]
protein stability index [1]: 3.66 ± 0.29
protein stability index [2]: 3.51 ± 0.28

SLQTGNHSNGPTDLSMKGGASTTS [NOL4L]
protein stability index [1]: 4.12 ± 0.25
protein stability index [2]: 4.31 ± 0.27

YTVNFLEAKEGDLHRIEIPFKFHM [CARM1]
protein stability index [2]: 3.15 ± 1.1

SQYQCENGVSGPSQDLLPPPNPYP [TBX5]
protein stability index [1]: 4.75 ± 0.16
protein stability index [2]: 4.64 ± 0.14

PSLRPRPASSISLPIGHLGCISLL [DMRTC1]
protein stability index [1]: 2.55 ± 0.35
protein stability index [2]: 2.85 ± 0.43

TLNVIELNVQKTVDYTGQAKAQVR [STX11]
protein stability index [1]: 2.93 ± 0.28
protein stability index [2]: 3.19 ± 0.31

LDKMLDPQVWREAATQVFFALGLG [SLC6A17]
protein stability index [1]: 2.52 ± 0.68
protein stability index [2]: 2.25 ± 0.28

MGNSMKSTPAPAERPLPNPEGLDS [SLA]
protein stability index [1]: 5.07 ± 0.49
protein stability index [2]: 5.13 ± 0.59

NGSCENSDASSHANAAKHTQDSAR [EHMT1]
protein stability index [1]: 5.27 ± 0.37
protein stability index [2]: 5.3 ± 0.2

LKSAKDLPPDALIIEYRGKFMLRE [KMT2E]
protein stability index [1]: 2.15 ± 0.4
protein stability index [2]: 2.38 ± 0.43

RCPVTVCGDVHGQFHDLMELFRIG [PPP2CA]
protein stability index [1]: 2.2 ± 0.35
protein stability index [2]: 2.24 ± 0.14

LPRKRQSLRSSSSKLAQLTLEQIL [INTS3]
protein stability index [1]: 2.34 ± 0.19
protein stability index [2]: 2.44 ± 0.12

KDPSAIGKKQVPCFASMLTKKLHF [CASP6]
protein stability index [1]: 2.23 ± 0.14
protein stability index [2]: 2.36 ± 0.16

HAACLKCAECSQYLDETCTCFVRD [ISL2]
protein stability index [1]: 4.67 ± 0.22
protein stability index [2]: 4.83 ± 0.23

GIAIVSVLVILISIVIFCLETLPE [KCNA3]
protein stability index [1]: 2.21 ± 0.26
protein stability index [2]: 2.36 ± 0.46

TNETNVNIPQMADTLFERATNSSW [SNAP91]
protein stability index [1]: 3.77 ± 0.11
protein stability index [2]: 3.99 ± 0.2

GVSSVDSAFSSRGSLSLSFEREPS [RIPK4]
protein stability index [1]: 4.33 ± 0.77
protein stability index [2]: 4.8 ± 0.52

TIRLRPRQVLCEKCKSTLSPPEAS [PWWP2B]
protein stability index [1]: 3.23 ± 0.3
protein stability index [2]: 3.75 ± 0.6

SAGGSRTPAMSSSSSSRVLLRQQL [TFE3]
protein stability index [1]: 3.45 ± 0.24
protein stability index [2]: 3.32 ± 0.19

DEISDHAKVLTLSDDLERTIEERV [EIF5]
protein stability index [1]: 5.16 ± 0.28
protein stability index [2]: 5.44 ± 0.11

HGPGHETPMTIPEFFRESVNRFGT [ACSBG2]
protein stability index [1]: 3.54 ± 0.29
protein stability index [2]: 3.6 ± 0.13

GPGTPTGPSLPSKRESPGVGGGSG [ZBTB22]
protein stability index [1]: 5.14 ± 0.31
protein stability index [2]: 4.96 ± 0.27

QRDGSKSEDELDQASTPTDVRDID [CCND2]
protein stability index [1]: 5.62 ± 0.16
protein stability index [2]: 5.62 ± 0.14

SPGELEEDLLLPGACPGADEAGGG [WEE1]
protein stability index [1]: 5.42 ± 0.24
protein stability index [2]: 5.5 ± 0.12

ARGDAVCTACGSVLEDNIIVSEVQ [BRF1]
protein stability index [1]: 4.38 ± 0.19
protein stability index [2]: 4.34 ± 0.077

RDMNGKSLDGKAIKVEQATKPSFE [RBMX]
protein stability index [1]: 5.08 ± 0.24
protein stability index [2]: 5.24 ± 0.27

FMHSRNLYILGNFMQLKCFSSQKL [PNLIPRP1]
protein stability index [1]: 3.11 ± 1.1
protein stability index [2]: 2.53 ± 0.74

SVKSKIGELEDESLNRACHQQNKI [CEP70]
protein stability index [1]: 4.63 ± 0.41
protein stability index [2]: 4.7 ± 0.25

GHLRGPEIRDWRGPQLEGEKDWGL [ZSWIM9]
protein stability index [1]: 3.66 ± 0.39
protein stability index [2]: 3.52 ± 0.47

CLMIGRDLVRLLQNVARIPEFELL [INTS3]
protein stability index [1]: 2.49 ± 0.17
protein stability index [2]: 2.24 ± 0.25

HSEVVEELVSADVIDLFDEQGLSA [RIPK4]
protein stability index [1]: 5.02 ± 0.52
protein stability index [2]: 4.98 ± 0.52

FHNCLIQLYCEKVQGLMKEYLLSF [VPS39]
protein stability index [1]: 2.96 ± 0.26
protein stability index [2]: 3.2 ± 0.7

DLSPLLGFWQLPPPATQNTFGNST [PLAGL1]
protein stability index [1]: 2.36 ± 0.43
protein stability index [2]: 2.5 ± 0.23

PTKSHSFRAMCQNGKLVYPSCEEK [CFHR2]
protein stability index [1]: 4.01 ± 0.32
protein stability index [2]: 4.25 ± 0.34

FHKQQWFNCIRAAIAPFQSAGSPP [NET1]
protein stability index [1]: 2.69 ± 0.58
protein stability index [2]: 2.5 ± 0.3

VTKLCVQFLNDQISVQNYKQVCKI [KLHL14]
protein stability index [1]: 2.76 ± 0.46
protein stability index [2]: 2.42 ± 0.56

RSQYEALVETNRREVEQWFATQTE [KRT34]
protein stability index [1]: 4.29 ± 0.25
protein stability index [2]: 4.33 ± 0.33

GMANGQQWLQSTSGSQRHMVGQKD [TLE6]
protein stability index [1]: 4.49 ± 0.17
protein stability index [2]: 4.47 ± 0.29

EKEMQKMNPYKIDIGAVYSHRPNQ [PRIM1]
protein stability index [1]: 3.64 ± 0.43
protein stability index [2]: 3.44 ± 0.32

LHCWLNAFAEMLRFGDRMFYKDWW [SOAT1]
protein stability index [1]: 2.97 ± 0.3
protein stability index [2]: 2.77 ± 0.6

FFPMGDEGASSQIGRAAGTGFTVN [HDAC6]
protein stability index [1]: 3.46 ± 0.17
protein stability index [2]: 3.69 ± 0.15

PQVPQPPSPAAVPRPPSNPPARGT [TRAF3IP2]
protein stability index [1]: 5.2 ± 0.12
protein stability index [2]: 5.17 ± 0.2

QVLNETRSQYEALVETNRREVEQW [KRT34]
protein stability index [1]: 4.3 ± 0.22
protein stability index [2]: 4.6 ± 0.1

RAAAAAAVAAATAAVEGSGGSGGG [KCNA4]
protein stability index [1]: 4.88 ± 0.26
protein stability index [2]: 4.9 ± 0.28

ALKRFVNLVARHPLFSEDVVLKLF [SNX8]
protein stability index [1]: 2.38 ± 0.88
protein stability index [2]: 2.46 ± 0.1

SEKETMQFLNDRLASYLEKVRQLE [KRT33B]
protein stability index [1]: 2.55 ± 0.12
protein stability index [2]: 2.66 ± 0.28

NNDDDEDEDDEDEDEDEDEDEDED [TAF7L]
protein stability index [1]: 5.57 ± 0.15
protein stability index [2]: 5.55 ± 0.23

LMTCEMLNRRNGSLRIALSEHLKQ [EDNRA]
protein stability index [1]: 2.71 ± 0.17
protein stability index [2]: 2.72 ± 0.26

QWLQSTSGSQRHMVGQKDSVILSV [TLE6]
protein stability index [1]: 2.12 ± 0.093
protein stability index [2]: 2.29 ± 0.27

MAVLEEIQQELIKQEQSIISEYEK [RPAIN]
protein stability index [1]: 4.28 ± 0.16
protein stability index [2]: 4.47 ± 0.16

EIATKPHEKIGFPAARRCHSCVQI [KLHDC10]
protein stability index [1]: 2.43 ± 0.29
protein stability index [2]: 2.59 ± 0.2

RRFNFFVLENNLEAVARHMLIFSL [DNAAF3]
protein stability index [1]: 2.77 ± 0.49
protein stability index [2]: 2.6 ± 0.47

DLGGSIYANLALSGLIEIQSYPLC [SLC22A15]
protein stability index [1]: 3.02 ± 0.72
protein stability index [2]: 2.63 ± 0.76

TEEQTRQERQGPAKPEVLSIQWPG [NECAB1]
protein stability index [1]: 5.07 ± 0.058
protein stability index [2]: 5.14 ± 0.15

VRLQERTSGGLLSEAPNEKLFFVD [NOP53]
protein stability index [1]: 3.5 ± 0.32
protein stability index [2]: 3.34 ± 0.33

ELLATGDKGGRVVIFQREQESKNQ [PPP2R2B]
protein stability index [1]: 3.79 ± 0.82
protein stability index [2]: 3.91 ± 0.34
